± gives the half width of the 95% confidence interval.
Assay: folding stability dG unfold from chymotrypsin proteolysis; higher = more stable
How it was run: (§1)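 Sequencing followed digestion of designed mini-proteins with trypsin and chymotrypsin, each at 11 concentrations in threefold dilutions together with a no-protease condition. The mini-proteins were under 80 residues, had no cysteine, sat in a PA-tagged cDNA display construct, and were kept only if AlphaFold2 dimer inter-PAE was above 15. From the counts, Bayesian fitting gave K50, and unfolding free energy was derived against a sequence-predicted unfolded-state K50 and a shared folded-state K50, per protease or combined.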

Point of comparison: “SAGKFPFMIKIEDKDGKPKDEIPIPAEELQDDPEKFLEIVETIADEFSKDGYRVKIYFPGTGQPIEIPISAG [r14_972_TrROS]”, “folding stability dG unfold” value 1.32 ± 0.15 kcal/mol. Against it:
- SAGGSAENKTIKITFTFKNAKNAIFTINVEKGNKTYKITFNLSDNQELNIEVDYNNTKVSFSIYPASAGGSA [r15_414_TrMRF] — higher, 5.35 ± 0.21 kcal/mol
- SAGGGKTVVTTTPDGRTVVAAELPDGSVVAVATFPDAPVLATYNPETKTVTVAFFKGGKLVATASDSSSAGG [r13_748_TrMRF] — lower, 0.855 ± 0.11 kcal/mol
- SAGGSAGGSPKPKVKKFNMEPVEIEPNPDNGHLSIRFPNGYYIQFHYDDDGEYELQIMPPDDLSAGGSAGGS [r12_351_TrROS] — lower, 0.764 ± 0.14 kcal/mol
- SAGGSMTTTTEDKGDGRIVTTTIPEEGTVVTTTIFYEPGGPKVETKTTTTPVPPLPSTVVTSPNLASAGGSA [r2_375_JUSTAS] — within error, 1.15 ± 0.13 kcal/mol
- SAGGSAGGSGDDIPTLTLVIKVDPNAITPEDIEEIKQAFLDLGYKEVTVTRNPETGYLVVELGSAGGSAGGS [r12_1025_TrMRF] — higher, 2.93 ± 0.11 kcal/mol
- SAGGSASVKIEVTVSPEQPDLTEEEAKAALTLTLPDGRPVKVEVLEVKPVPGSTVLLVEVEENVLLSAGGSA [r15_331_JUSTAS] — lower, 0.487 ± 0.073 kcal/mol
- SAGGSAGGSAEIVPVDGKLYVRIEVDGKTYVFEFDSVEELKNATFTLPNGKKVKVEIVPKEDLSAGGSAGGS [r12_730_TrROS_Hall] — higher, 3.433 ± 0.029 kcal/mol
- SAGGMPPVVTEHTVELNPPASATLEDVRAAAEEVAAAIRAAAPEAGVAEVTFTVDPSRGTVTITVTRPSAGG [r13_1011_JUSTAS] — lower, -0.925 ± 0.15 kcal/mol
- SAGGSAGGSMPPNFRVMIHDDDGEERTFHMSPEDLKEFADNLPDVKVEPHPPGMMHITVRVPKSAGGSAGGS [r20_231_TrROS] — lower, 0.454 ± 0.085 kcal/mol
- SAGGMETWRIKVDGKEIEVTVEDGKITVTFADGTKVEITLEEGETPEEVAKRLAEELGADKVEIEKVPSAGG [r13_852_TrROS_Hall] — higher, 3.31 ± 0.078 kcal/mol

Assay: folding stability dG unfold (combined trypsin and chymotrypsin); higher = more stable
How it was run: as §1

Point of comparison: “SAGGSAEVTITVEYDEETGVLKITITVPPGVTVEEIAEALKKLVPDVKVEKNEDGTITVYVKLPEKSAGGSA [r15_1057_TrROS_Hall]”, “folding stability dG unfold” value 4.07 ± 0.33 kcal/mol. Against it:
- SAGGMTLEERAEALAAERGWTVTSIELVEEKPGEVKFRVTFRLPDGSLETVEITVKRPPPVPPDNLLSAGGS [r8_309_JUSTAS] — within error, 3.74 ± 0.057 kcal/mol
- SAGGSAGGSTLEEVRKIAEEAVKKGYPYVVISAPGGLKKVFKVEEDDIVEIPDSEGYTVELLSSAGGSAGGS [r20_44_TrMRF] — lower, 0.52 ± 0.12 kcal/mol
- SAGGMPLPDEKVNITITINYTLPGGKPKTITIPATNWTVEEANEKKKKVEEELKKVPPDPVEKDGKLLSAGG [r13_330_JUSTAS] — lower, -0.354 ± 0.21 kcal/mol
- SAGKPGEPIKLKIRYVDPDNGEPQTFEFPIKRIEDVEIDPPGNIIITFPGDGQEITFPPNHLTEVEILSAGG [r19_416_TrROS] — lower, 0.0637 ± 0.18 kcal/mol
- SAGGSAGGSAMFPDNTTVIEKEVPSSDVESAIEEIKKEYGVENYEVTTEPRPGTVKITVTIKPSAGGSAGGS [r12_929_JUSTAS] — lower, 1.53 ± 0.093 kcal/mol
- SAVPAEGMSPEEAAALAEEVREAFEAEVKAAGGPIPADTVVTVDYALEGSPVTITLTFTTPDSVSTTVASAG [r14_501_JUSTAS] — lower, 0.906 ± 0.06 kcal/mol
- SAGGSAGGSAGGSPVEIKLKELPDGVLVAEATFTLENGETVKIKAVYDKKTKKLHFELVSAGGSAGGSAGGS [r4_13_TrROS_Hall] — lower, 3.09 ± 0.098 kcal/mol
- SPEVPPGKTLEREFKGVPVRLTREEESGTIHITVYPPTDPSKPLYEAEFSPDELRPIPLPPEVAAALAAESA [r9_1051_JUSTAS] — lower, -0.13 ± 0.16 kcal/mol
- SAGGMVIIIPSPDNTVLIIEIEGDKAKIIIINPEDGSAVIIELPIEPNGDGSFILKITSIEVLEDADISAGG [r13_556_TrMRF] — lower, 3.27 ± 0.26 kcal/mol
- SGMLAPDATVTTTEIVFEKDPKTGLYYLTVKEKTVTVKPDSSGRLVLTTSPVTITDLGPLTPEEAEKLLSSA [r9_423_JUSTAS] — lower, 2.51 ± 0.085 kcal/mol
- SAGGSAGGKVRINWNPNGWIRIKIETPGKKQEIPIPMDSPEDAKDFVDKLAKQFKVKIEEIEPYSAGGSAGG [r6_254_TrROS] — lower, 0.194 ± 0.26 kcal/mol
- SAGGSAGGSSEKAEELLERLRELLPPEEIRRVEVRDGKIVIEVSPEAARRLAEELGLDEIEIVSAGGSAGGS [r12_748_TrROS_Hall] — lower, 2.49 ± 0.074 kcal/mol
- SPSPAAKNMKPIRIRLRDPNGKKYKIENINVGPDGQFQIRIKFPGNTHTQTLPPGAPFELPPDRIEEVEISA [r9_993_TrROS] — lower, 0.959 ± 0.092 kcal/mol
- SAGGSAGGSAWMYRIKIEIYSNGKKHKYEFWIPEDNIDEVADQLPPGYKIKITDIEPWEPNSAGGSAGGSAG [r3_195_TrROS] — lower, 2.46 ± 0.14 kcal/mol
- SAGGKTVTIKVTRPDGKELTIEFEEKDGKVTVRVFDKDGKLVKEIEVDSLEEALKALEEAGYEVEVVPSAGG [r13_315_TrROS_Hall] — lower, 3.42 ± 0.2 kcal/mol
- SAGGSAGGSAGMLVYRTVVTTEVLETETTSFPTPEGPYVTTTTVTVKTTVTVEKLTPELLSAGGSAGGSAGG [r11_24_JUSTAS] — lower, 2.75 ± 0.2 kcal/mol
- SAGGSAGGSMEIVVPVKNPEELKAVAEELEKKGYKVEKLPDGSLKVEKPGSVIYIKGDPVPPLSAGGSAGGS [r12_204_JUSTAS] — lower, 1.45 ± 0.14 kcal/mol
- SAGGSASEELVEEIANIIKPALEEEGIEVERVEATAVTLPDGTVVIPVRVRTKDGPEVLEFNIVILSAGGSA [r15_232_TrMRF] — lower, 1.19 ± 0.038 kcal/mol
- SAGGSAGGSAGGKTVVLFVDPKTKKVYILYPDGKIETLSPEELKNKPIIVKPVKLHPKAGSAGGSAGGSAGG [r7_98_TrMRF] — lower, 1.56 ± 0.053 kcal/mol
- SAGEIVIPIPFDWEQAPRMAKHLLRRFQQEGKKIRIWVPDAGAVEAIKDALPPNFPIEVEPLKPGEPIPSAG [r5_911_TrROS] — lower, 0.909 ± 0.14 kcal/mol
